In patent US20110086089A1, “USE OF P27KIP1 FOR THE PREVENTION AND TREATMENT OF HEART FAILURE” (UNIVERSITY HEALTH NETWORK, priority 2008, published 2011):

System: p27 phosphorylation at S83 and T187 in cardiomyocytes
Test: p27 phosphorylation at S83 and T187 in Ang II-treated cardiomyocytes (Western blot)
Type: cell-based, rat
Settings: Ang II 4 h; lentiviruses 72 h; DMAT 20 μM pre-incubated 30 min; TAT-conjugated CK2-alpha-prime 2.5 μg/ml 1 h
Procedure: FIG. 2 is a series of graphs and blots showing Ang II triggers CK2-alpha-prime-dependent phosphorylation of p27 on S83 and T187 in cardiomyocytes. (A) p27 is a substrate of CK2-alpha-prime. […] In vitro kinase assays employing recombinant wt.p27 (1 μg) or phosphorylation site mutants of p27 as substrates were incubated with recombinant CK2-alpha-prime/beta (200 ng). Aliquots of the reaction mixtures were resolved on SDS-PAGE, electrotransferred to nitrocellulose membranes, and the amount of incorporated radioactive [^32P}-label into p27 was quantified with a PhosphorImager and ImageJ software. Individual membranes were probed with anti-CK2-alpha-prime, anti-p27 (input), or phosphorylation site specific antibodies to p27. […] Samples were resolved on SDS-PAGE, transferred to nitrocellulose-membranes, and the amount of incorporated radioactive label into histones was quantified with a PhosphorImager and ImageJ. The input amount of each CK2-alpha-prime and p27 protein used in the kinase reaction mixtures was monitored by immunoblot analysis employing anti-His. […] Biochemically fractionated extracts corresponding to 4×10^5 cells per lane were analyzed by immunoblotting employing antibodies as indicated on the left. […]

B1: kd.CK2-α′: catalytically-inactive kinase-dead CK2-alpha-prime, point mutation K69M; TAT-conjugated protein in mice, lentivirally expressed in cardiomyocytes (protein)
chain: MPGPAAGSRARVYAEVNSLRSREYWDYEAHVPSWGNQDDYQLVRKLGRGKYSEVFEAINITNNERVVVMILKPVKKKKIKREVKILENLRGGTNIIKLIDTVKDPVSKTPALVFEYINNTDFKQLYQILTDFDIRFYMYELLKALDYCHSKGIMHRDVKPHNVMIDHQQKKLRLIDWGLAEFYHPAQEYNVRVASRYFKGPELLVDYQMYDYSLDMWSLGCMLASMIFRREPFFHGQDNYDQLVRIAKVLGTEELYGYLKKYHIDLDPHFNDILGQHSRKRWENFIHSENRHLVSPEALDLLDKLLRYDHQQRLTAKEAMEHPYFYPVVKEQSQPCADNAVLSSGLTAAR
modifications: left off: small tags and cut ends
notes: TAT-conjugated protein in mice, lentivirally expressed in cardiomyocytes
- S83/T187 phosphorylation of p27 in cardiomyocytes: abolished
